One block for each molecule: values may come before it. Where no end group is shown, it is not given here.
Assays:
[1] = biological target: ERBIN PDZ domain (Homo sapiens, UniProt Q96RT1); experiment: GST-PDZ co-precipitation of proteins from transfected HEK 293 cell extracts; assay type: binding; design: made in house; host or cells: E. coli; settings: extracts from transfected HEK 293 cells; FIG. 6
Method: (§1) HEK 293 (293) cells grown in high glucose Dulbeco's Modified Eagle Medium (DMEM), 10% fetal calf serum, 1× non-essential amino acid supplement, 1×L-glutamine supplement, 10 mM HEPES (pH 7.4) and penicillin/streptomycin (all from Life Technologies) to ˜80% confluence were transfected with 2 μg DNA/35 mm diameter well (for example, DNAs encoding the sequences described in EXAMPLE 5.0) using Fugene reagent (Roche Biochemical). 24 hours post-transfection, cells were washed once with PBS and then scraped into 1 ml/well of 20 mM Tris (pH 7.5), 1% Triton X-100, 200 mM NaCl, 1 mM dithiothreitol, and protease inhibitor cocktail with EDTA (Roche Biochemical, catalog #1836145) and homogenized gently with three to five strokes in a dounce (Wheaton) using a loose glass pestle. Extracts were centrifuged at 12,000 rpm in a tabletop centrifuge at 4° C. for 10 minutes; the supernatant was combined with an equal volume of homogenization buffer without NaCl to achieve a final salt concentration of 100 mM and frozen at −70° C. until use. […] Binding of 293 cell-expressed proteins was detected by immunoblot analysis using antibodies against GFP (Clontech) and Her 2 (Santa Cruz Biotechnology).
Amino acids 1217-1371 of ERBIN and 584-707 corresponding to PDZ 2 of MAGI-3 (Sidhu et al., 2000); were expressed in E. coli as GST fusions. […] Equal volumes of extract and depleted extract (sup.) were analyzed.

[2] = biological target: GST-MAGI-3 PDZ 3 (aa. 741-840 of SEQ ID NO:200) (human) [GST: P08515]; experiment: competition ELISA: peptide blocks GST-PDZ binding to immobilized peptide
Chain of GST-MAGI-3 PDZ 3 (aa. 741-840 of SEQ ID NO:200) (human) [GST: P08515] (P08515 whole entry, the tested form may be a part): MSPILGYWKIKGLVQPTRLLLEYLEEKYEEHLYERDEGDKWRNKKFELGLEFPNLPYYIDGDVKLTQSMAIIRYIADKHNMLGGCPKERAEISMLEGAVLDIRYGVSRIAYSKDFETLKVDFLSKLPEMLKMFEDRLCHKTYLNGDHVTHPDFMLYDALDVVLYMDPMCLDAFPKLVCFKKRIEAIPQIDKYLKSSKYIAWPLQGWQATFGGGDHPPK

[3] = biological target: T1, MAGI-3 PDZ 3 (Homo sapiens, UniProt Q5TCQ9); experiment: Biotinylated peptide pull-down of PDZ domains from HEK 293 cell extracts; assay type: binding; settings: GST fusion, FIG. 4
T1 construct: PDZ 3; aa; expressed in transfected cells; host or cells: HEK 293
T1 sequence (Q5TCQ9 741-840 isoform Q5TCQ9-2): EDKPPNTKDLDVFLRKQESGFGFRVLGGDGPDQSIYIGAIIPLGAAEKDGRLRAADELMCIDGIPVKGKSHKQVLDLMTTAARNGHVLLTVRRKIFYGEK
Method: as §1, with “Biotechnology). […]” for “Biotechnology).”

[4] = tested on: Caco-2 cells; experiment: Peptide targeting in live Caco-2 cells (fluorescein coupled peptides, confocal microscopy); assay type: cell-based; settings: polarised Caco-2 monolayer, overnight incubation, 2 mM or 5 mM peptide; FIG. 5
Method: Caco-2 cells were grown on polycarbonate transwell filters (12 mm diameter, 0.4 μm pore size; Costar) in same media as HEK 293 cells) until a fully polarized monolayer was obtained as determined by resistance measurements. The live cells were then incubated overnight with amino terminally, fluorescein (FAM) coupled peptides: (A) 2 μM of ATQITWV (SEQ ID NO:214), (B) 2 μM ATQITWA (SEQ ID NO:215) or (C) 5 μM ASKITWV (SEQ ID NO:216) added into the media of the lower transwell chamber. The cells were then washed with Hanks Balanced Salt Solution (HBSS) with 1.8 mM CaCl2, fixed with ice cold methanol, permeabilized with 0.25% Triton X-100 in PBS, blocked with 5% donkey serum in PBS and stained with 1.5 μg monoclonal anti-γ-catenin antibody. The basolateral marker protein γ-catenin was visualized using Cy3-conjugated donkey anti-mouse antibodies (Jackson Immunolabs), diluted 1:1000. Processed filters were excised with a razor and mounted between a slide and coverslip with Vectashield mounting medium (Vector Labs; Burlingame, Calif.). Images were taken on a Leica confocal microscope using a 63X oil immersion objective.
Caco-2 cells were grown on polycarbonate transwell filters until a fully polarised monolayer was obtained. The live cells were then incubated overnight with the fluorescein (green) coupled peptides: (A) 2 mM of ATQITWV (SEQ ID NO:214), (B) 2 mM ATQITWA (SEQ ID NO:215) or (C) 5 mM ASKITW (SEQ ID NO:221) (FIG. 5). The cells were then fixed and counterstained with antibodies against the protein γ-catenin (FIG. 5). […] Substitution of A for V at the peptide carboxyl terminus should disrupt the interaction of a ligand with its cognate PDZ binding partner.

[5] = biological target: T2, MAGI 3 PDZ2 (Homo sapiens, UniProt Q5TCQ9); experiment: Biotinylated peptide pull-down of PDZ domains from HEK 293 cell extracts; assay type: binding; design: PDZ 2; aa; expressed in transfected cells; host or cells: HEK 293; settings: GST fusion, FIG. 4, FIG. 8
T2 sequence (Q5TCQ9 584-707 isoform Q5TCQ9-2): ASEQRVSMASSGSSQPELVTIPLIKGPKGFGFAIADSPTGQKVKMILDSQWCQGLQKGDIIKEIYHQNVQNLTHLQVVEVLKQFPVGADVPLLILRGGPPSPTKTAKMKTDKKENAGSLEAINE
Method: as §1, with “use. For peptide-pull-down experiments of MAGI-3 PDZ domains or the ERBIN PDZ domain, 100 μl of 293 cell extract was diluted to 400 μl in binding buffer (homogenization buffer modified to 100 mM NaCl) and incubated with 10 μM amino-terminally biotinylated peptide and 100 μl of strepavidin agarose (Sigma) for 2 hours on a rotator at 4° C. The beads were washed three times with 1 ml binding buffer and boiled in 60 μl of Laemmli's reducing sample buffer, of which 15 μl was loaded onto SDS-gels. PDZ domains co-precipitated with a given biotinylated peptide were visualized by immunoblot analysis using anti-GST (Genentech) or anti-GFP (Clontech) antibodies.” for “use.”, “Biotechnology). […]” for “Biotechnology).”

[6] = biological target: GST-MAGI-3 PDZ 3 (aa. 741-840 of SEQ ID NO:200) (human) [GST: P08515]; experiment: competition ELISA
[7] = biological target: ERBIN PDZ-GST fusion protein (aa. 1217-1371 of SEQ ID NO:201) (human) [GST: P08515]; experiment: competition ELISA: ERBIN PDZ-GST binding to immobilized biotin-PDZ 501
Chain of ERBIN PDZ-GST fusion protein (aa. 1217-1371 of SEQ ID NO:201) (human) [GST: P08515] (P08515 whole entry, the tested form may be a part): as the sequence (P08515 whole entry, the tested form may be a part) above

[8] = biological target: GST-MAGI-3 PDZ 2 (aa. 584-707 of SEQ ID NO:200) (human) [GST: P08515]; experiment: competition ELISA
Chain of GST-MAGI-3 PDZ 2 (aa. 584-707 of SEQ ID NO:200) (human) [GST: P08515] (P08515 whole entry): as the sequence (P08515 whole entry, the tested form may be a part) above

[9] = biological target: GST-MAGI-3 PDZ 2 (aa. 584-707 of SEQ ID NO:200) (human) [GST: P08515]; experiment: competition ELISA: peptide blocks GST-PDZ binding to immobilized peptide
[10] = biological target: T3, hZO1 PDZ1 (Homo sapiens, UniProt Q07157); experiment: IC50 (nM) | hZO1 PDZ1 | 5 nM | B01-88 | Bio-GGWRWTTWL (SEQ ID NO: 684) | 36 nM
T3 construct: Human ZO1 (NM_003257) PDZ1; GST; made in house
T3 sequence (Q07157 23-110): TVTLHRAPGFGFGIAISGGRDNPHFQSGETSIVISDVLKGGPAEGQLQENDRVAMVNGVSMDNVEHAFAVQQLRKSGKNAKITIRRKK
Method: Table printed on a drawing sheet, FIG. 12A
Head of the field: IC50 (nM) | hZO1 PDZ1 | 5 nM | B01-88 | Bio-GGWRWTTWL (SEQ ID NO: 684) | 36 nM
The patent's description of the figure: FIG. 12. IC50 values indicating binding affinities of various peptides to PDZ domains
First copying reader's note: Upper left part of a table split over FIG. 12A-12D; further receptor columns and further peptides are on the other sheets.
Where the first naming reader finds the target: head: IC50 (nM) | hZO1 PDZ1 | 5 nM | B01-88

[11] = biological target: T4, GST-MAGI-3 PDZ 2 (aa. 584-707 of SEQ ID NO:200) (human, UniProt P08515 1-218 = GST); experiment: competition ELISA
T4 sequence (P08515 whole entry, the tested form may be a part): as the sequence (P08515 whole entry, the tested form may be a part) above

[12] = biological target: ERBIN PDZ-GST fusion protein (aa. 1217-1371 of SEQ ID NO:201) (human, UniProt P08515 1-218 = GST); experiment: competition ELISA: ERBIN PDZ-GST binding to immobilized biotin-PDZ 501
Chain of ERBIN PDZ-GST fusion protein (aa. 1217-1371 of SEQ ID NO:201) (P08515 whole entry, the tested form may be a part): as above

[13] = biological target: T4, GST-MAGI-3 PDZ 2 (aa. 584-707 of SEQ ID …); experiment: competition ELISA: peptide blocks GST-PDZ binding to immobilized peptide

Chain of ERBIN PDZ domain (Q96RT1 1258-1412): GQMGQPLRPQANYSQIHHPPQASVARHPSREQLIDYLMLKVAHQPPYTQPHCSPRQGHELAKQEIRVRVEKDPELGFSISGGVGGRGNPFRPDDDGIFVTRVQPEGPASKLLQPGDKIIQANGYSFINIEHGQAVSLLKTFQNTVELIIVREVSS

Molecule: ATQITWA [V to A change at the (0) position; used biotinylated or fluorescein coupled]
precipitation of MAGI-3 PDZ 3 from cell extracts by biotinylated peptide [3]: did not bind
localization of fluorescein coupled peptide in live cells [4]: does not target to the tight junction
precipitation of MAGI-3 PDZ 2 from cell extracts by biotinylated peptide [5]: did not bind

Molecule: ATQITKV [biotinylated peptide with W to K change at the (−1) position, reference compound]
precipitation of MAGI-3 PDZ 3 from cell extracts by biotinylated peptide [3]: did not bind
precipitation of MAGI-3 PDZ 2 from cell extracts by biotinylated peptide [5]: did not bind

Molecule: ASKITWV [amino terminally fluorescein (FAM) coupled peptide]
localization of fluorescein coupled peptide in live cells [4]: localize apically on the lateral membrane to the tight junction

Molecule: CSWV (peptide)
IC50 [8]: 1000 nM
IC50 [9]: 1400 nM

Molecule: ATQITWV [derivative of the C-terminus of PTEN, K to W at (−1); used biotinylated or fluorescein coupled]
localization of fluorescein coupled peptide in live cells [4]: localize apically on the lateral membrane to the tight junction
precipitation of MAGI-3 PDZ 2 from cell extracts by biotinylated peptide [5]: efficiently precipitate only the PDZ domain that they were phage-selected against

Molecule: Ac-WRWTTWV [13 | 01-31, SEQ ID NO: 652: N^AC-WRWTTWV]
IC50 [10]: 0.0443 nM

B3: DVPA (peptide)
peptide: DVPA
notes: also called DVPA ligand
IC50 [12]: > 100000 nM

B4: ASKVTWV (peptide)
peptide: ASKVTWV
notes: synthetic peptide
IC50 [13]: 800 nM

B5: DGICSWV (peptide)
peptide: DGICSWV
notes: synthetic peptide
IC50 [13]: 300 nM

Now from value to molecule:

binding to / precipitation by GST-ERBIN PDZ [1]: specifically precipitated
Molecule: Her 2: Her 2 receptor, a previously reported ligand for the ERBIN PDZ

IC50 [2]: 900 nM
Molecule: TRWWFDI (peptide)

fold reduction in binding affinity against the unamidated peptide [6]: 300 fold
IC50 [2]: 300000 nM
Molecule: TRWWFDI-NH2 (peptide)

IC50 [7]: > 400000 nM
Molecule: DVPV (peptide)

IC50 [8]: 4000 nM
IC50 [9]: 4000 nM
Molecule: VTWV (peptide)

IC50 [11]: 200000 nM
B1: ITKV (peptide)
peptide: ITKV
notes: also called MAGI 3 PDZ2 domain "naturally-selected" ligand

IC50 [12]: 4500 to 5000 nM
B2: TGWDTWV (peptide)
peptide: TGWDTWV

IC50 [12]: 500 to 1000 nM
B6: TGWETWV (peptide)
peptide: TGWETWV
notes: test peptide in solution

From patent US20030148264A1, “Phage displayed PDZ domain ligands” (GENENTECH, INC., priority 2001, published 2003)
